Data published in patent publication US20080069777A1 (CBR INSTITUTE FOR BIOMEDICAL RESEARCH, published 2008).

How the values were obtained:
[1] = target: T1, human wild-type LFA-1 on cells (human, UniProt P20701 26-1170; P05107 23-769); test: inhibition of ICAM binding to human PBMCs; average of four experiments
T1 construct: also called LFA-1 on human PBMCs

[2] = target: T2, mouse LFA-1 on the EL4 cell line (mouse, UniProt P24063 24-1162; P11835 24-771); test: binding to EL4 cell line, no treatment
T2 construct: whole, on cells; also called Mouse EL4 Cell line

[3] = target: T3, rabbit LFA-1 on PBMCs (rabbit, UniProt A0A5F9C4C9 27-1127; A0A5F9CF43 23-747); test: flow cytometry on PBMCs, no treatment
T3 construct: whole, on cells; also called rabbit PBMCs
Description: Whole blood from healthy animals (rat, sheep, rabbit, dog, rhesus monkey, cynomologus monkey and chimpanzee) were obtained from Valley Biomedical Products and Services, Inc. PBMCs were isolated from whole blood and cultured in low adherent 6-well plates overnight in RPMI 1640 with 10% FBS, 1× Pen/Strep. PBMCs were harvested, washed once with Hanks' Balanced Salt Solution (HBSS) 1×, 20 mM HEPES buffer containing 10 mM EDTA, and then twice with HBS. Cells were resuspended in HBSS at 2×10⁶ cells/ml, 100 μl aliquots per well were added into 96-well plates (Costar round bottom). After spinning down, cell pellets were resuspended in 50 μl activating buffer (HBSS, 10 mM MgCl₂, 2 mM EGTA) or inactivating buffer (HBSS, 2 mM CaCl₂, 2 mM MgCl₂). For certain wells, PMA or DTT was added to a final concentration of 10 ng/ml or 500 μM, respectively. Cells were then incubated at 37° C. for 20 minutes.
Antibodies that recognized CD-11a from the particular species (human, sheep, dog, rat, rabbit) (1:100 dilution) were used as positive controls. […] Cells were incubated at 4° C. for 30 minutes, then washed twice with 220 μl/well HBSS containing 0.05% NaN₃, resuspended in 200 μl/well HBSS and analyzed using the GUAVA EXPRESS™ protocol (Guava Technologies, Inc., Hayward Calif.).

T1 sequence (P20701 other isoform, or with tags, fused parts or gaps limits assumed, chain 1 of 2): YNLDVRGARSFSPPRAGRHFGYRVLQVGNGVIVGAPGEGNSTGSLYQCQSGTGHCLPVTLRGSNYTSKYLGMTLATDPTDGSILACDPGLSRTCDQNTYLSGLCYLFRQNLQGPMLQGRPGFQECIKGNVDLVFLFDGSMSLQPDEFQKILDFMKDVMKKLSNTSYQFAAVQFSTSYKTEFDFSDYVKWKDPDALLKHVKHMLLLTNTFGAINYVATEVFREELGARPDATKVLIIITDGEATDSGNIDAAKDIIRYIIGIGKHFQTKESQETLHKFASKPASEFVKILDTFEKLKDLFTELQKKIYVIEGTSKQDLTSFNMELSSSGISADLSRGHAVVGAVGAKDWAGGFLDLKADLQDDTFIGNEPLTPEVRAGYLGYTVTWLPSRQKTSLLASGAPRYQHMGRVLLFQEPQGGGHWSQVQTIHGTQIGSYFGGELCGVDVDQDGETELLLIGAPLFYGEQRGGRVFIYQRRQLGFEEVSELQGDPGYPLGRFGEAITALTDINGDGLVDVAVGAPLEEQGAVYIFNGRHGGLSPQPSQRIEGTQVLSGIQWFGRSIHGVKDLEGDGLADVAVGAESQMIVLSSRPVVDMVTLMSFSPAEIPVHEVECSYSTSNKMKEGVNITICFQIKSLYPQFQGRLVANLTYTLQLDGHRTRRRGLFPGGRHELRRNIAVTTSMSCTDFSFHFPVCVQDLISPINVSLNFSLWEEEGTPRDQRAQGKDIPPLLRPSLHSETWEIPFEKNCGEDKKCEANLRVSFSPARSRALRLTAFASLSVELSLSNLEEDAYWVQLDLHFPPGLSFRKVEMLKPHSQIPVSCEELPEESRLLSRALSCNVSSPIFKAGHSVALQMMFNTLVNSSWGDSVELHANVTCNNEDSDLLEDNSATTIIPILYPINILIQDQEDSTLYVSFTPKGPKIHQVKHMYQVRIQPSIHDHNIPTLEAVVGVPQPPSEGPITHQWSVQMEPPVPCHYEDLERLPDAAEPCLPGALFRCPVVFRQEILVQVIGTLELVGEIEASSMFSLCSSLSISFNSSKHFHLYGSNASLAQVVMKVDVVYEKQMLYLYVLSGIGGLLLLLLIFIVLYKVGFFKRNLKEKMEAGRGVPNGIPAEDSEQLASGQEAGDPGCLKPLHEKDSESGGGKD
T1 sequence (P05107 other isoform, or with tags, fused parts or gaps limits assumed, chain 2 of 2): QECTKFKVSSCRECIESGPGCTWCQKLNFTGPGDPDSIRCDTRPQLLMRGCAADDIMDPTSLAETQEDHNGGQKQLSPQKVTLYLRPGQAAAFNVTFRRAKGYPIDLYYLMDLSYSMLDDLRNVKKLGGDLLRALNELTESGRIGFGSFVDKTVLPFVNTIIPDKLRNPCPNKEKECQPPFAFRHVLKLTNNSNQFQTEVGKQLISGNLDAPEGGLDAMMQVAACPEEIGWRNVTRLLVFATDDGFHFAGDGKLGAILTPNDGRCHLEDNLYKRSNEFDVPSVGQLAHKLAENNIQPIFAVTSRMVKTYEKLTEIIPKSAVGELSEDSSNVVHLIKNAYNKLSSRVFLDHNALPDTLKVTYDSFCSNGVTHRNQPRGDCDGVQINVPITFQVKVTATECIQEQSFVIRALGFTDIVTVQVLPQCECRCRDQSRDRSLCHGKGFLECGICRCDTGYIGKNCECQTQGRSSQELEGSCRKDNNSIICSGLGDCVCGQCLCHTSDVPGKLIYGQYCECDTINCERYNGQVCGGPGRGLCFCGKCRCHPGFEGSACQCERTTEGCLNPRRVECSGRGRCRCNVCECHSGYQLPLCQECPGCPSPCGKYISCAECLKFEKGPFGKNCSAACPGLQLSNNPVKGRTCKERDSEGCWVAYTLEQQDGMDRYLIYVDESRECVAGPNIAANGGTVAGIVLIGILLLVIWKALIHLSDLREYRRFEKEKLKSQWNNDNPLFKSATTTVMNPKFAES
T2 sequence (P24063 24-1162, chain 1 of 2): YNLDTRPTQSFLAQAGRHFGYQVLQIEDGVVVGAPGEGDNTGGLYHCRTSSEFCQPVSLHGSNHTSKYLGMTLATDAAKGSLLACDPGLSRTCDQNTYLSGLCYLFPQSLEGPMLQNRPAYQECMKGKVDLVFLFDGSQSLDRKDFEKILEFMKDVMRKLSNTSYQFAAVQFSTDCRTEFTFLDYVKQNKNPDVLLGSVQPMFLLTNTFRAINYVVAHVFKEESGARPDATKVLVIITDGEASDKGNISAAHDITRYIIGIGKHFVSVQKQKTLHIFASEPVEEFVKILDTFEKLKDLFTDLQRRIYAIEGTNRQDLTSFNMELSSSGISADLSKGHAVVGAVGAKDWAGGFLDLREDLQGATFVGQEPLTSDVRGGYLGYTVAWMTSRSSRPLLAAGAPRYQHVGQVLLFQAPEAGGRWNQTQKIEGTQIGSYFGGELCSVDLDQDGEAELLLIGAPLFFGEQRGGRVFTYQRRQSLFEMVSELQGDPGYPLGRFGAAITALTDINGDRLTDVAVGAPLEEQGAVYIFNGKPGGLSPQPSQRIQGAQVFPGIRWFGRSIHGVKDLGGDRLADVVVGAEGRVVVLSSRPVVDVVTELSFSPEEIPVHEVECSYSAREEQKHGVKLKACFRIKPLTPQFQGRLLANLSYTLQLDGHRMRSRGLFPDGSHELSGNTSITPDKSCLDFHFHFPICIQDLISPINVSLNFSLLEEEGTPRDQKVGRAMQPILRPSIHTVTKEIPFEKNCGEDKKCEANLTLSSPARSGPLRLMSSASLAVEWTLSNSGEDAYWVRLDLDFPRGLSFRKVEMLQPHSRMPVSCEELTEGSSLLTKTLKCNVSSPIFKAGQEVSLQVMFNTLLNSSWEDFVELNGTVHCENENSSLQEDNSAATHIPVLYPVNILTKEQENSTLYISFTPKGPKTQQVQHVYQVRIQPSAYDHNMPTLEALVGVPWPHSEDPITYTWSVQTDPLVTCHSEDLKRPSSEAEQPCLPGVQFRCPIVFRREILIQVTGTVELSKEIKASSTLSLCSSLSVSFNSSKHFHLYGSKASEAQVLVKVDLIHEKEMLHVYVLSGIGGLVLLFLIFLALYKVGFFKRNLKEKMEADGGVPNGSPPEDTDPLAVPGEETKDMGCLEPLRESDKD
T2 sequence (P11835 24-771, chain 2 of 2): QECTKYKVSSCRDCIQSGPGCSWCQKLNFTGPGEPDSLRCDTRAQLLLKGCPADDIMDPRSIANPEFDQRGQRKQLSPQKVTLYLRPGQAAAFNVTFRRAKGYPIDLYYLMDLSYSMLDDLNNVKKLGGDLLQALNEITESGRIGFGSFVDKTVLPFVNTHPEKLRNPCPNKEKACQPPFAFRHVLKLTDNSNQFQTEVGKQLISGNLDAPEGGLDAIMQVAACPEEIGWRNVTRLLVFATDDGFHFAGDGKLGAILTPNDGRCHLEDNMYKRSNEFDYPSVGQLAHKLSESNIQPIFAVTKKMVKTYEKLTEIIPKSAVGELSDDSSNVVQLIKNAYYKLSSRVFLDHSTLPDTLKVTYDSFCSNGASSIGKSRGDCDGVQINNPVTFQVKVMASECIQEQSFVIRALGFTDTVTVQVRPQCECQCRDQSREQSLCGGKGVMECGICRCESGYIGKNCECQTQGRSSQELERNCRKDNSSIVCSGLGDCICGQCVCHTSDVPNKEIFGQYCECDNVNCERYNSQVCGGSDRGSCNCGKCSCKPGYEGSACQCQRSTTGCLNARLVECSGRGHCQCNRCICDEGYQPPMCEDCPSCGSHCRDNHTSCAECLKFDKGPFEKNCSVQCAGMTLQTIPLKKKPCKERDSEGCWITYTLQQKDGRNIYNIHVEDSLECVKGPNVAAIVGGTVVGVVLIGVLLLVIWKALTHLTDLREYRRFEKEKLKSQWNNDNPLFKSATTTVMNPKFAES

B1: D2-57 IgG1 (antibody, V domains shown)
VH: EVQLLESGGGLVQPGGSLRLSCAASGFTFSRYVMWWVRQAPGKGLEWVSYIWPSGGNTYYADSVKGRFTISRDNSKNTLYLQMNSLRAEDTAVYYCASSYDFWSNAFDIWGQGTMVTVSS
VL: DIQMTQSPSSLSASVGDRVTITCRASQSIGSYLNWYQQKTGKAPKALIYAASSLQSGVPSRFSGSGSGTDFTLTISSLQLEDFATYYCQQSYSTPSFGQGTKVEIKR
For B1, which IC50 [1] is on record?
Its IC50 is 540 pM.

B2: DX-2001 (germlined variant of D2-57, IgG4) (antibody, V domains shown)
VH: EVQLLESGGGLVQPGGSLRLSCAASGFTFSRYVMWWVRQAPGKGLEWVSYIWPSGGNTYYADSVKGRFTISRDNSKNTLYLQMNSLRAEDTAVYYCASSYDFWSNAFDIWGQGTMVTVSS
VL: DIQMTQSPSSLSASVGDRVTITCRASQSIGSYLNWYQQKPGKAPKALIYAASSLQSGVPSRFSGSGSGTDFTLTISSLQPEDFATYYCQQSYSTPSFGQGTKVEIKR
Which results are given for B2?
binding result [2]: no binding; binding result [3]: no binding (tested: 10 µg/ml)
